Experimental data published in patent US10253076B2, “Peptides and combination of peptides for use in immunotherapy against ovarian cancer and other cancers” (immatics biotechnologies GmbH, priority 2015, dated 2019).

Each substance was assayed against HLA-A*02:01 (Homo sapiens, UniProt P04439, D140Y/D185E/D98H/E176V/E277Q/G131W/G231S/I119V/I121R/I166T/I218V/L300P/L318F/N151K/N90K/P208A/P217A/Q86G/Q94H/R138H/R169H/T345S) (assay: MHC binding assay (UV-ligand exchange, beta2m ELISA, peptide exchange yield)). Settings: binding of HLA-class I restricted peptides to HLA-A*02:01, ranged by peptide exchange yield (UV-ligand exchange, β2m ELISA).
In short: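 Readout is a β2m ELISA: stabilized complexes captured on streptavidin, detected with HRP-conjugated anti-β2m and TMB at 450 nm, reporting peptide exchange yield. Complexes come from UV-light cleavage of a conditional ligand in HLA-A*02:01 and replacement by the candidate peptide, samples diluted 100-fold.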

Peptide exchange	Substance
″+++″ (≥50% = +++)	343 (SLLEVNEESTV; listed as Homo sapiens) [compound 343]
″+++″ (≥50% = +++)	326 (FLPEALDFV; listed as Homo sapiens) [compound 326]
″+++″ (≥50% = +++)	102 (YLFESEGLVL; listed as Homo sapiens) [compound 102]
″+++″ (≥50% = +++)	138 (YQYPRAILSV; listed as Homo sapiens) [compound 138]
″+++″ (≥50% = +++)	457 (SLLPGNLVEKV; listed as Homo sapiens) [compound 457]
″+++″ (≥50% = +++)	256 (FLPPEHTIVYI; listed as Homo sapiens) [compound 256]
″++″ (≥20% = ++)	385 (SLLEQGLVEA; listed as Homo sapiens) [compound 385]
″+++″ (≥50% = +++)	90 (TLLQIIETV; listed as Homo sapiens) [compound 90]
″++++″ (≥75% = ++++)	395 (ALALGGIAVV; listed as Homo sapiens) [compound 395]
″+++″ (≥50% = +++)	388 (SLTIDGIRYV; listed as Homo sapiens) [compound 388]
″+++″ (≥50% = +++)	341 (SQIALNEKLVNL; listed as Homo sapiens) [compound 341]
″+++″ (≥50% = +++)	560 (ALWDIETGQQTTT; listed as Homo sapiens) [compound 560]
″+++″ (≥50% = +++)	160 (FLFDEEIEQI; listed as Homo sapiens) [compound 160]
″+++″ (≥50% = +++)	88 (FLLVGDLMAV; listed as Homo sapiens) [compound 88]
″++″ (≥20% = ++)	185 (FLIDDKGYTL; listed as Homo sapiens) [compound 185]
″+++″ (≥50% = +++)	151 (KILQQLVTL; listed as Homo sapiens) [compound 151]
″++″ (≥20% = ++)	231 (FLSPQQPPLLL; listed as Homo sapiens) [compound 231]
″++″ (≥20% = ++)	133 (KVLSNIHTV; listed as Homo sapiens) [compound 133]
″++++″ (≥75% = ++++)	553 (SLLNQDLHWSL; listed as Homo sapiens) [compound 553]
″++″ (≥20% = ++)	176 (YLMEGSYNKVFL; listed as Homo sapiens) [compound 176]
″+++″ (≥50% = +++)	322 (TLMTSLPAL; listed as Homo sapiens) [compound 322]
″++″ (≥20% = ++)	523 (YQIPRTFTL; listed as Homo sapiens) [compound 523]
″++″ (≥20% = ++)	434 (KVSNSGITRV; listed as Homo sapiens) [compound 434]
″+++″ (≥50% = +++)	25 (FLPDEPYIKV; listed as Homo sapiens) [compound 25]
″+++″ (≥50% = +++)	97 (SLINGSFLV; listed as Homo sapiens) [compound 97]
″+++″ (≥50% = +++)	175 (YLFENISQL; listed as Homo sapiens) [compound 175]

Peptide exchange	Substance
″+++″ (≥50% = +++)	324 (FLYDEIEAEV; listed as Homo sapiens) [compound 324]
″++″ (≥20% = ++)	277 (LLPPLESLATV; listed as Homo sapiens) [compound 277]
″+++″ (≥50% = +++)	190 (FLSSLTETI; listed as Homo sapiens) [compound 190]
″++″ (≥20% = ++)	32 (KLDDLTQDLTV; listed as Homo sapiens) [compound 32]
″+++″ (≥50% = +++)	573 (ILVANAIVGV; listed as Homo sapiens) [compound 573]
″++″ (≥20% = ++)	115 (AIAGAGILYGV; listed as Homo sapiens) [compound 115]
″+++″ (≥50% = +++)	359 (YLLPESVDL; listed as Homo sapiens) [compound 359]
″++″ (≥20% = ++)	47 (ILLSVPLLVV; listed as Homo sapiens) [compound 47]
″+++″ (≥50% = +++)	362 (TLYGLSVLL; listed as Homo sapiens) [compound 362]
″+++″ (≥50% = +++)	454 (KLPPPPPQA; listed as Homo sapiens) [compound 454]
″+++″ (≥50% = +++)	582 (TLCDVILMV; listed as Homo sapiens) [compound 582]
″++++″ (≥75% = ++++)	438 (KLLPLAGLYL; listed as Homo sapiens) [compound 438]
″+++″ (≥50% = +++)	95 (SVIPQIQKV; listed as Homo sapiens) [compound 95]
″++++″ (≥75% = ++++)	19 (FMVDNEAIYDI; listed as Homo sapiens) [compound 19]
″++++″ (≥75% = ++++)	329 (FLVTLNNVEV; listed as Homo sapiens) [compound 329]
″+++″ (≥50% = +++)	554 (LLMPSSEDLLL; listed as Homo sapiens) [compound 554]
″+++″ (≥50% = +++)	14 (AAYGGLNEKSFV; listed as Homo sapiens) [compound 14]
″+++″ (≥50% = +++)	351 (SLIPNLRNV; listed as Homo sapiens) [compound 351]
″+++″ (≥50% = +++)	315 (YLQDVVEQA; listed as Homo sapiens) [compound 315]
″++″ (≥20% = ++)	232 (ALLEAQDVELYL; listed as Homo sapiens) [compound 232]
″++″ (≥20% = ++)	570 (ALANQIPTV; listed as Homo sapiens) [compound 570]
″+++″ (≥50% = +++)	390 (ALFMKQIYL; listed as Homo sapiens) [compound 390]
″+++″ (≥50% = +++)	473 (AMATESILHFA; listed as Homo sapiens) [compound 473]
″+++″ (≥50% = +++)	271 (LVYPLELYPA; listed as Homo sapiens) [compound 271]
″++++″ (≥75% = ++++)	109 (IILSILEQA; listed as Homo sapiens) [compound 109]
″+++″ (≥50% = +++)	257 (SIFSAFLSV; listed as Homo sapiens) [compound 257]

Peptide exchange	Substance
″+++″ (≥50% = +++)	556 (FLTDLEDLTL; listed as Homo sapiens) [compound 556]
″++″ (≥20% = ++)	229 (RLPGPLGTV; listed as Homo sapiens) [compound 229]
″+++″ (≥50% = +++)	245 (SMIDDLLGV; listed as Homo sapiens) [compound 245]
″+++″ (≥50% = +++)	541 (SMLEPVPEL; listed as Homo sapiens) [compound 541]
″++″ (≥20% = ++)	491 (GLNDRSDAV; listed as Homo sapiens) [compound 491]
″++″ (≥20% = ++)	380 (TLIEDEIATI; listed as Homo sapiens) [compound 380]
″+++″ (≥50% = +++)	562 (YLEELPEKLKL; listed as Homo sapiens) [compound 562]
″+++″ (≥50% = +++)	243 (LLLNELPSV; listed as Homo sapiens) [compound 243]
″++″ (≥20% = ++)	566 (VIADGGIQNV; listed as Homo sapiens) [compound 566]
″++++″ (≥75% = ++++)	51 (LLPDLEFYV; listed as Homo sapiens) [compound 51]
″+++″ (≥50% = +++)	106 (LLYDAVHIVSV; listed as Homo sapiens) [compound 106]
″++++″ (≥75% = ++++)	358 (ALDEYTSEL; listed as Homo sapiens) [compound 358]
″+++″ (≥50% = +++)	586 (KLKPGDLVGV; listed as Homo sapiens) [compound 586]
″++++″ (≥75% = ++++)	303 (AILPQLFMV; listed as Homo sapiens) [compound 303]
″+++″ (≥50% = +++)	484 (SLIEKVTQL; listed as Homo sapiens) [compound 484]
″+++″ (≥50% = +++)	300 (ALLGQTFSL; listed as Homo sapiens) [compound 300]
″++++″ (≥75% = ++++)	237 (ALLEASGTLLL; listed as Homo sapiens) [compound 237]
″+++″ (≥50% = +++)	407 (YLMDLINFL; listed as Homo sapiens) [compound 407]
″+++″ (≥50% = +++)	545 (LLADLLHNV; listed as Homo sapiens) [compound 545]
″+++″ (≥50% = +++)	189 (ALQRKLPYV; listed as Homo sapiens) [compound 189]
″++++″ (≥75% = ++++)	62 (VLLDVSAGQLLM; listed as Homo sapiens) [compound 62]
″++++″ (≥75% = ++++)	77 (ILVEADGAWVV; listed as Homo sapiens) [compound 77]
″+++″ (≥50% = +++)	30 (LILDWVPYI; listed as Homo sapiens) [compound 30]
″+++″ (≥50% = +++)	327 (GLAPFTEGISFV; listed as Homo sapiens) [compound 327]
″+++″ (≥50% = +++)	544 (LLWDVPAPSL; listed as Homo sapiens) [compound 544]
